Results on six molecules are retold here after US20240166737A1 (Janssen / Centocor, published 2024).

For assay [1], the target named is T1, 12 AA stub region peptide LVLDLSMQEALS (human).
T1 construct: free N-terminus; also called 12 AA Peptide
T1 peptide: LVLDLSMQEALS
The assay can be described thus: SPR.

The target of assay [2] is T2, 14 AA stub (a.a. 290-303 of SEQ ID NO: 247) (human).
T2 peptide: GYLVLDLSMQEALS
The assay can be described thus: SPR, mAb captured, peptide injected. On the procedure: (§1) The binding was assessed by SPR. Briefly, GAH-Fc was used to capture mAbs on C4 sensor chip followed by antigen injection starting at 30 nM (14 amino acid stub), 100 nM (10-13 amino acid stubs), or 1000 nM (7-9 amino acid stubs) progressing in a 3-fold dilution series in single cycle kinetics mode. HBSP+0.01% BSA was used in the assay.

The target in assay [3] is T3, 13 AA stub (a.a. 291-303 of SEQ ID NO: 247) (human).
T3 peptide: YLVLDLSMQEALS
The assay is described as follows: SPR, mAb captured, peptide injected. On the procedure:
as §1
In general terms: SPR reads the build-up and loss of mass on a sensor chip optically.

For assay [4], the target named is T4, 11 AA stub (a.a. 293-303 of SEQ ID NO: 247) (human).
T4 peptide: VLDLSMQEALS
The assay can be described thus: SPR, mAb captured, peptide injected. Here is the method: as §1

Assay [5] addresses T5, 10 AA stub (a.a. 294-303 of SEQ ID NO: 247) (human).
T5 peptide: LDLSMQEALS
The assay is described as follows: SPR, mAb captured, peptide injected. Here is the method:
as §1

The target in assay [6] is T6, 9 AA stub (a.a. 295-303 of SEQ ID NO: 247) (human).
T6 peptide: DLSMQEALS
The assay is described as follows: SPR, mAb captured, peptide injected. Here is the method:
as §1

Assay [7] has as its target T7, 7 AA stub (a.a. 297-303 of SEQ ID NO: 247) (human).
T7 peptide: SMQEALS
The assay is described as follows: SPR, mAb captured, peptide injected. On the procedure:
as §1

The target of assay [8] is T8, MSNW10, recombinant full length human MSLN (human, UniProt Q13421 296-598).
T8 construct: also called MSNW10.002; FL-MSLN
T8 sequence (Q13421 other isoform, or with tags, fused parts or gaps limits assumed): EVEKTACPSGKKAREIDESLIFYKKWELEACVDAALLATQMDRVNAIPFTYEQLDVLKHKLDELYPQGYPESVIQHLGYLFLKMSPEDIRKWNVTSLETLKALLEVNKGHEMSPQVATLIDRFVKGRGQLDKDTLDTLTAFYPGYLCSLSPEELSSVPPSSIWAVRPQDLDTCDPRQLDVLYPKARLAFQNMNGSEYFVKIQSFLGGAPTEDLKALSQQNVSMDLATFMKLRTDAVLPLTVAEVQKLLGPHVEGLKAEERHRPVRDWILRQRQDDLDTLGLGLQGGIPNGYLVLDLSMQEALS
The assay is described as follows: SPR, recombinant full-length human MSLN.

For assay [9], the target named is T9, MSNW11, recombinant soluble (shed) MSLN lacking the C-terminal 7 AAs (human, UniProt Q13421 296-591).
T9 construct: domain: soluble MSLN lacking the C-terminal 7 AAs; also called MSNW11.002; soluble MSLN
T9 sequence (Q13421 other isoform, or with tags, fused parts or gaps limits assumed): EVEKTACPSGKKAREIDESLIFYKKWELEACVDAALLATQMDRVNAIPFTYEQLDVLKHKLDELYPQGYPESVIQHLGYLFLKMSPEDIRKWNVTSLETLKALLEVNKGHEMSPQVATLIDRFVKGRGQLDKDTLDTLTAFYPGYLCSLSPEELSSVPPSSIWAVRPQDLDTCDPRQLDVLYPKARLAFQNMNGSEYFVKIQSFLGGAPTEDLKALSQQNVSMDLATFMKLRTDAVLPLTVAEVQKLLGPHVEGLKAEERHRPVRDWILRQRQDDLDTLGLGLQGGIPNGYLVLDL
The assay is described as follows: H838 cell binding with shed MSLN (MSNW11) added. The source says:
(§2) Table 16 lists the immunization campaigns, antigens used, and number of clones returned at each stage of screening. Clones from which antibody sequences were successfully recovered were first screened for binding to recombinant full length human MSLN (MSNW10) and H838 cells that express MSLN on the cell surface. Binders were further screened for binding to cells in the presence of recombinant soluble MSLN lacking the C-terminal 7 AAs (MSNW11). This form of recombinant MSLN represented the product of cleavage at the closest cleavage site to the C-terminus known at the time, therefore, it theoretically represented the longest form of shed MSLN. The final concentration of shed MSLN in the assays was 100 nM.

Assay [10] concerns the target T10, 8 AA stub (a.a. 296-303 of SEQ ID NO: 247) (human).
T10 construct: also called 8 AA Peptide; peptide of the last 8 C-terminal amino acids
T10 peptide: LSMQEALS
The assay is described as follows: competition of OVCAR8 cell binding by the peptide.

The target in assay [11] is T11, human MSLN on the cell surface (human, UniProt Q13421 296-598).
T11 construct: on cells stands the processed GPI-anchored 40 kDa MSLN; also called membrane MSLN; MSLN on H838, OVCAR-8 (OVCAR8), OVCAR-8 K1/C8, SK-OV-3 cells
The assay can be described thus: high content imaging, surface staining of OVCAR8 cells. Here is the method:
OVCAR8 cells were cultured in RPMI 1640 medium supplemented with 10% FCS, 1% L-glutamine and 1% Gentamycin and seeded in Greiner CELLSTAR plate one day before experiment. 24 h after seeding, antibody mixture was prepared by diluting MSLN and control antibodies in Table 21 in full media containing CellMask™ Deep Red Plasma Membrane Stain (ThermoFisher, C10046) in 12 concentrations each with 3 folds dilution starting from 20 μg/ml and 20 μl of which were added directly to the cells in 20 μl. Antibodies were allowed for binding to the cell surface for 2h inside the incubator (37°) C. and the surface bound antibodies were fixed for 15 min at RT by directly adding 30 ul of 10% Formaldehyde (04018-1, Polysciences). Afterwards residual Formaldehyde was removed by washing the cells twice with PBS and the primary antibodies were stained with secondary antibodies (Alexa Fluor 488 goat anti-human IgG, Invitrogen, A11013) complemented with Hoechst 33342 (H3570, ThermoFisher) and HCS CellMask™ Deep Red Stain (ThermoFisher, H32721) in PBS for 1h at RT. After removing unbound antibodies and other dyes by washing the cells 3 times with PBS cells were imaged on the CellVoyager 7000 (Yokogawa, Tokyo, Japan) using a 40×/0.95 objective. Of each well, 9 fields were imaged. Image analysis was performed with Acapella (PerkinElmer, Waltham, MA, USA) and the results stored in Phaedra (OpenAnalytics, Antwerp, Belgium). Data analysis was done in R (www.r-project.org).
The data was then fitted using the four-parameter logistic using least-squares regression, keeping the lower boundary fixed at 0.

In assay [12] the target is T11, human MSLN on the cell surface. The assay is described as follows: binding to H838 cells with and without 100 nM recombinant shed MSLN (MSNW11); the two curves lie on each other.
Excerpt: as §2

Assay [13] concerns the target T12, CD3 epsilon on human T-cells (human, UniProt P07766 23-207). The assay can be described thus: cell-based or functional assay.
Assay [14] concerns the target T13, MSLN with Met593Val on cells homozygous for SNP rs1135210 (SNP G|G) (human, UniProt Q13421 296-598).
T13 construct: also called homozygous SNP-positive cells; BxPC3, NCI-H322
The assay can be described thus: binding to homozygous SNP-positive cells.

Assay [15] addresses T12, CD3 epsilon on human T-cells. The assay is described as follows: cell-based or functional assay. The source holds these as a separate data set.
For assay [16] the target is unchanged. The assay can be described thus: T-cell binding assay, FIG. 15.
Assay [17] has as its target T8, MSNW10, recombinant full length human …. The assay is described as follows: SPR, additional experiments.
Assay [18] concerns the target T1, 12 AA stub region peptide LVLDLSMQEALS
The assay can be described thus: SPR, mAb captured, peptide injected. Here is the method:
as §1

Assay [19] has as its target T10, 8 AA stub (a.a. 296-303 of SEQ ID NO: …). The assay is described as follows: SPR, mAb captured, peptide injected. Here is the method:
as §1

T12 sequence (P07766 23-207 limits assumed): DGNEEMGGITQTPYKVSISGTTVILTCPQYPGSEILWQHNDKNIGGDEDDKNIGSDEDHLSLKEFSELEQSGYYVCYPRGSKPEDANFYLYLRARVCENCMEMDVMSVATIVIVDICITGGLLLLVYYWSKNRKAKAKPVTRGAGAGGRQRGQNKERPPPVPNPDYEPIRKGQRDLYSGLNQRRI
T13 sequence (Q13421 other isoform, or with tags, fused parts or gaps M593V M593V limits assumed): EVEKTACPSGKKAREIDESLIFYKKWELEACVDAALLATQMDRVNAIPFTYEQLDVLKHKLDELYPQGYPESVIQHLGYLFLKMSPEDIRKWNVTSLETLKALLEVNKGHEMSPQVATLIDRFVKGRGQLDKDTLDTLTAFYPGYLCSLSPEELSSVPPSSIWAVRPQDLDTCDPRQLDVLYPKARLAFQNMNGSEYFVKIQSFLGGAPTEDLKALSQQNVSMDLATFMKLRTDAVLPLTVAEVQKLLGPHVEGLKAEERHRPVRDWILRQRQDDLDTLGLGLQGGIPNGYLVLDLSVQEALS

B1: MSNB124 (antibody, V domains shown)
VH: QVQLQQSGPGLVKPSQTLSLTCAISGDSVSSNSVAWHWIRQSPSRGLEWLGRTYHRSKWYNDYAVSVKSRITINPDTSKNQFSLQLNSVTPEDTAVYYCARQILGALDYWGQGTLVTVSS
VL: DIVMTQTPLSLPVTPGEPASISCRSSQSLQFGNGNYLDWYLQKPGQSPQLLIYLGSNRASGVPDRFSGSGSGTDFTLKISRVEAEDVGVYYCMQVLQIPFTFGPGTKVDIK
notes: mAb
Take B1: the binding result is recorded as “binds” in assay [1]; “binds” in [2]; “no binding (tested: 100 nM)” in assay [4]; “no binding (tested: 100 nM)” in assay [5]; “no binding (tested: 1000 nM)” in [6]; “no binding (tested: 1000 nM)” in assay [7]. The figures for the binding result in assay [9] and in [10] were “no binding (tested: 100 nM)” and “no binding”, respectively. Further, the Kd in assay [3] was 14 nM; in assay [8], 6.4 nM. In [11], this molecule registered an IC50 of 0.0735 µg/mL. In addition, the “Maximum Value (arbitrary units)” value in assay [11] was found to be 1.46e+07 arbitrary units. The “EC50 (read off the curve)” value in [12] is approximately 0.4 nM.

B2: MNC3B55 (bispecific antibody)
scFv: EVQLVESGGGLVKPGGSLRLSCAASGFTFSRYNMNWVRQAPGKGLEWVSSISTSSNYIYYADSVKGRFTFSRDNAKNSLDLQMSGLRAEDTAIYYCTRGWGPFDYWGQGTLVTVSSGGSEGKSSGSGSESKSTGGSDIQMTQSPSSLSASVGDRVTITCRARQSIGTAIHWYQQKPGKAPKLLIKYASESISGVPSRFSGSGSGTDFTLTISSLQPEDFATYYCQQSGSWPYTFGQGTKLEIK
VH: QVQLVESGPGQVKPSQTLSLTCAISGDSVSSNSAAWNWIRQSPSRGLEWLGRTYYRSKWYNDYAVSVKSRITINPDTSKNQFSLQLNSVTPEDTAVYYCARRDYSSGGFDYWGQGTTVTVSS
VL: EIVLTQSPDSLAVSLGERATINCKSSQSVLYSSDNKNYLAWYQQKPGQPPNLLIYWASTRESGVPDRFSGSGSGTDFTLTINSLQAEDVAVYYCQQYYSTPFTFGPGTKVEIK
Take B2: the “cytotoxicity EC50, NCI-H838 cells, pan T-cells 5:1 E:T, 48 hours” value in [13] came out at 0.027 nM.

B3: MNC3B130 (bispecific antibody)
scFv: DIQMTQSPSSLSASVGDRVTITCRARQSIGTAIHWYQQKPGKAPKLLIKYASESISGVPSRFSGSGSGTDFTLTISSLQPEDFATYYCQQSGSWPYTFGQGTKLEIKGGSEGKSSGSGSESKSTGGSEVQLVESGGGLVKPGGSLRLSCAASGFTFSRYNMNWVRQAPGKGLEWVSSISTSSNYIYYADSVKGRFTFSRDNAKNSLDLQMSGLRAEDTAIYYCTRGWGPFDYWGQGTLVTVSS
VH: B2 VH
VL: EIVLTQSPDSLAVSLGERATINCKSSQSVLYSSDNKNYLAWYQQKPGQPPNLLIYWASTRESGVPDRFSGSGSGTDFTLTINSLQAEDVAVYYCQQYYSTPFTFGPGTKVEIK
notes: MSNB457 Fab x CD3W245 LH scFv; Fc chain 1 T350V/L351Y/F405A/Y407V, Fc chain 2 T350V/T366L/K392/T394W; also called mrMSLN-MSNB457 x W245LH alternative heterodimerization scaffold
With B3, the “cytotoxicity EC50, NCI-H838 cells, pan T-cells 5:1 E:T, 48 hours” value in [13] came out at 0.15 nM. Moreover, the binding result in assay [14] is listed as “no binding”.

B4: MNC3B187 (bispecific antibody)
scFv: B2 scFv
VH: B2 VH
VL: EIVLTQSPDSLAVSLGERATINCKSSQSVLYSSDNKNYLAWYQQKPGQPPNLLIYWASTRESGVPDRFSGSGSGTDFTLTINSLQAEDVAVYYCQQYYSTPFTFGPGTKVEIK
notes: Bipod: MSNB457 Fab x CD3W245 HL scFv-Fc; also called CD3W245 HL containing Bipod
As for B4, in assay [15], the “AC90 [nM], cytotoxicity, 1:1 E:T, 72 hours” value came out at 0.016 nM; the “Max. Activity, cytotoxicity, 1:1 E:T, 72 hours” value was determined as 88%; the “qAC50 [nM], cytotoxicity, 1:1 E:T, 72 hours” value worked out at 0.0035 nM. This molecule yielded an EC50 in assay [16] of 2 nM.

B5: MSLNB591 (antibody, V domains shown)
VH: QVQLQQSGPGLVKPSQTLSLTCGISGDSVSSSSVAWNWIRQSPSRGLEWLGRTYYRSKWYNDYAISVRSRVTINPDTSKNQFSLQLNSVTPEDTAVYYCSRGVVGALDYWGQGTLVTVSS
VL: DIVMTQSPLSLTVTPGEPASISCRSSQSLLFTNGYNSLDWYLQKPGQSPQFLIYLVSNRASGVPDRFSGSGSGTDFTLKISRVEAEDVGVYYCMQALRTPYTFGQGTKVDIK
notes: mAb; also called MSNB591
B5: the Kd in assay [17] was determined as 0.3 nM; in assay [2], 0.563 nM; in assay [3], 1.08 nM; in assay [18], 2.04 nM. Moreover, the binding result in assay [4] is listed as “no binding (tested: 100 nM)”; in assay [5], “no binding (tested: 100 nM)”; in assay [6], “no binding (tested: 1000 nM)”; in assay [19], “no binding (tested: 1000 nM)”; in assay [7] it was “no binding (tested: 1000 nM)”; in assay [9], “no binding (tested: 100 nM)”.

B6: MSLNB569 (antibody, V domains shown)
VH: QVQLQQSGPGLVKPSQTLSLTCAISGDSVSSTRAAWNWIRQSPSRGLEWLGRTYYRSKWYNDYTVSVKSRITINPDTSKNQFSLHLNSVTPEDSAVYFCARGNVGRVDFWGQGTLVTVSS
VL: EIVMTQSPLSLPVTPGEPASISCRSSQSLLHSDGYNYLDWYLQKPGQSPQLLIYLGSNRASGVPDRFSGSGSDTDFTLKISRVEAEDVGVYYCMQGLRTPLTFGPGTKVDIK
notes: mAb; also called MSLNB569.001; MSNB569
In the case of B6, the Kd in assay [17] stood at 3.4 nM; in assay [2], 1.99 nM; in assay [3] it was 5.99 nM; in assay [18], 4.06 nM. For the same molecule, the binding result in [4] is recorded as “no binding (tested: 100 nM)”; in [5], “no binding (tested: 100 nM)”; in assay [6], “no binding (tested: 1000 nM)”; in assay [19] it was “no binding (tested: 1000 nM)”; in [7] it was “no binding (tested: 1000 nM)”; in [9], “no binding (tested: 100 nM)”. In assay [11], this molecule had an IC50 of 0.166 µg/mL. The “Maximum Value (arbitrary units)” value in assay [11] stood at 1.6e+07 arbitrary units.

In general, Kd refers to a measure of binding affinity in units of concentration. By IC50 is commonly meant the midpoint of a concentration-inhibition curve. The low end stands for inhibition by little substance, the high end for a need for much substance. One may read the EC50 (read off the curve) as the concentration needed to bring the measured effect to its halfway point. In general, EC50 refers to the midpoint of the concentration-response curve. A higher EC50 goes with lower potency in that assay.
